B1: human LRP6 P1E1P2E2 (membrane distal fragment), biotinylated, for SPR (domain or fragment, UniProt O75581 20-630, looked up)
chain: APLLLYANRRDLRLVDATNGKENATIVVGGLEDAAAVDFVFSHGLIYWSDVSEEAIKRTEFNKTESVQNVVVSGLLSPDGLACDWLGEKLYWTDSETNRIEVSNLDGSLRKVLFWQELDQPRAIALDPSSGFMYWTDWGEVPKIERAGMDGSSRFIIINSEIYWPNGLTLDYEEQKLYWADAKLNFIHKSNLDGTNRQAVVKGSLPHPFALTLFEDILYWTDWSTHSILACNKYTGEGLREIHSDIFSPMDIHAFSQQRQPNATNPCGIDNGGCSHLCLMSPVKPFYQCACPTGVKLLENGKTCKDGATELLLLARRTDLRRISLDTPDFTDIVLQLEDIRHAIAIDYDPVEGYIYWTDDEVRAIRRSFIDGSGSQFVVTAQIAHPDGIAVDWVARNLYWTDTGTDRIEVTRLNGTMRKILISEDLEEPRAIVLDPMVGYMYWTDWGEIPKIERAALDGSDRVVLVNTSLGWPNGLALDYDEGKIYWGDAKTDKIEVMNTDGTGRRVLVEDKIPHIFGFTLLGDYVYWTDWQRRSIERVHKRSAEREVIIDQLPDLMGLKATNVHRVIGSNPCAEENGGCSHLCLYRPQGLRCACPIGFELISDMKTCIVP
modifications: biotin
notes: human LRP6 P1E1P2E2 domains, residues A20-P630; source: HEK293T, co-transfected with a BirA-ER plasmid
B2: mouse FZD5 cysteine rich domain (FZD5CRD), biotinylated, for SPR (domain or fragment, UniProt Q9EQD0 27-157, looked up)
chain: ASKAPVCQEITVPMCRGIGYNLTHMPNQFNHDTQDEAGLEVHQFWPLVEIHCSPDLRFFLCSMYTPICLPDYHKPLPPCRSVCERAKAGCSPLMRQYGFAWPERMSCDRLPVLGGDAEVLCMDYNRSEATT
modifications: biotin
notes: mouse Fzd5 cysteine rich domain, residues A27-T157, synthesised (Genscript); also called mouse FZD5CRD; source: HEK293T, co-transfected with a BirA-ER plasmid
B3: human FZD8 cysteine rich domain (FZD8CRD), biotinylated, for SPR (domain or fragment, UniProt Q9H461 28-158, looked up)
chain: ASAKELACQEITVPLCKGIGYNYTYMPNQFNHDTQDEAGLEVHQFWPLVEIQCSPDLKFFLCSMYTPICLEDYKKPLPPCRSVCERAKAGCAPLMRQYGFAWPDRMRCDRLPEQGNPDTLCMDYNRTDLTT
modifications: biotin
notes: human FZD8 CRD, residues A28-T158, synthesised (Genscript); also called human FZD8CRD; source: HEK293T, co-transfected with a BirA-ER plasmid
B4: mouse Cachd1 extracellular domain (CACHD1ECD) (domain or fragment)
chain: DADFSILDEAQVLASQMRRLAAEELGVVTMQRIFNSLVYTEKISNGESEVQQLAKKIREKFNRYLDVVNRNKQVVEASYTAHLTSPLTAIQDCCTIPPSMMEFDGNFNTNVSRTVSCDRLSTTVNSRAFNPGRDLNSVLADNLKSNPGIKWQYFSSEEGIFTVFPAHKFRCKGSYEHRSRPIYVSTVRPQSKHIVVILDHGASVTDTQLQIAKDAAQVILSAIDEHDKISVLTVADAVRTCSLDQCYKTYLSPATSETKRKMSTFVSSVKPSDSPTQHAVGFHRAFQLIRSTSNSTRFQANTDMVIIYLSAGITSKDSSEEDKKATLRVINEENGFLNNSVMILTYALMNDGVTGLKELAFLRDLAEQNSGKYGIPDRTALPVIKGSMMVLNQLSNLETTVGRFYTNLPNRMIDEAVFSLPFSDEMGDGLIMTVSKPCYFGNLLLGIVGVDVNLAYILEDVTYYQDSLASYTFLIDDKGYTLMHPSLTRPYLLSEPPLHTDIIHYENIPKFELVRQNILSLPLGSQIITVPVNSSLSWHINKLRETGKEAYNVSYAWKMVQDTSFILCIVVIQPEIPVKQLKNLNTVPSSKLLYHRLDLLGQPSACLHFKQLATLESPTVMLSAGSFSSPYEHLSQPETKRMVEHYTAYLSDNTRLIANPGLKFSVRNEVMATSHVTDEWMTQMEMSSLNTYIVRRYIATPNGVLRIYPGSLMDKAFDPTRRQWYLHAVANPGLISLTGPYLDVGGAGYVVTISHTIHSSSTQLSSGHTVAVMGIDFTLRYFYKVLMDLLPVCNQDGGNKIRCFIMEDRGYLVAHPTLVDPKGHAPLEQQHITHKEPLVANDILNHPNFVKKNLCNSFSDRTVQRSYKFNTSLVGDLTNLVHGSHCSKYRLTRIPGTNAFVGIVNETCDSLAFCACSMVDRLCLNCHRMEQNECECPCECPLEVNECTGNLTNAENRNPSCEVHQEPVTYTAIDPGLQDALQQCVNSRCNQRMESGDCFGVLDCEWCVVDSDGKTHLDKSYCAPQKECFGGIVGAKSPYVDDMGAIGDEVITLNMIKS
notes: mouse Cachd1 extracellular domain, residues D50-S1107, in pNeoSec; also called mouse CACHD1ECD; source: deglycosylated with EndoF1 before crystallisation
B5: human LRP6 P3E3P4E4 (membrane proximal fragment), biotinylated, for SPR (domain or fragment, UniProt O75581 629-1244, looked up)
chain: VPEAFLLFSRRADIRRISLETNNNNVAIPLTGVKEASALDFDVTDNRIYWTDISLKTISRAFMNGSALEHVVEFGLDYPEGMAVDWLGKNLYWADTGTNRIEVSKLDGQHRQVLVWKDLDSPRALALDPAEGFMYWTEWGGKPKIDRAAMDGSERTTLVPNVGRANGLTIDYAKRRLYWTDLDTNLIESSNMLGLNREVIADDLPHPFGLTQYQDYIYWTDWSRRSIERANKTSGQNRTIIQGHLDYVMDILVFHSSRQSGWNECASSNGHCSHLCLAVPVGGFVCGCPAHYSLNADNRTCSAPTTFLLFSQKSAINRMVIDEQQSPDIILPIHSLRNVRAIDYDPLDKQLYWIDSRQNMIRKAQEDGSQGFTVVVSSVPSQNLEIQPYDLSIDIYSRYIYWTCEATNVINVTRLDGRSVGVVLKGEQDRPRAVVVNPEKGYMYFTNLQERSPKIERAALDGTEREVLFFSGLSKPIALALDSRLGKLFWADSDLRRIESSDLSGANRIVLEDSNILQPVGLTVFENWLYWIDKQQQMIEKIDMTGREGRTKVQARIAQLSDIHAVKELNLQEYRQHPCAQDNGGCSHICLVKGDGTTRCSCPMHLVLLQDELSCG
modifications: biotin
notes: human LRP6 P3E3P4E4 domains, residues V629-G1244; also called 3-4; source: HEK293T, co-transfected with a BirA-ER plasmid
B6: human LRP6 P3E3P4E4, for crystallography (domain or fragment, UniProt O75581 629-1244, looked up)
chain: B5 chain
notes: human LRP6 P3E3P4E4 domains, residues V629-G1244

Experiments:
Details in all cases: both partners purified
[1] = biological target: B4; assay: SPR; biotinylated FZD CRDs or LRP6 fragments immobilised (about 500-1,000 RU) on an SA sensor chip, CACHD1ECD as analyte at 100 μL/min; Biacore S200, 25 °C, 10 mM HEPES pH 7.5, 150 mM NaCl, 0.005% Tween 20; equilibrium response fitted to a one-site saturation binding model
[2] = biological target: human FZD7 cysteine rich domain (FZD7CRD), biotinylated, for SPR (human, UniProt O75084 33-170, biotin); assay: as above
[3] = biological target: B4; assay: crystal structure; ternary complex: Cachd1ECD mixed with equal molar FZD5CRD and LRP6 P3E3P4E4; 0.1 M calcium acetate, 0.1 M sodium acetate pH 4.5, 10% (w/v) PEG 4000; 4.7 Å

Binder	Kd [1] [nM]	other results
B1	5860	–
B2	480	–
B3	950	–
B4	–	Kd [2]: 14200 nM
B5	170	–
B6	–	binding result [3]: binds

— publication doi:10.1101/2022.05.16.492129, “Cachd1 is a novel Frizzled- and LRP6-interacting protein required for neurons to acquire left-right asymmetric character” (bioRxiv, 2022)
